Assay [1] addresses T1, human MSLN-hFc protein (Acro, Cat. No. MSN-H5253) (human, UniProt Q13421 296-580).
T1 construct: the method names the coated protein as human MSLN-hFc (Acro); also called human MSLN full-length protein
The assay can be described thus: ELISA on coated antigen, antibody 0.001 nM. For orientation: ELISA stands for enzyme-linked immunosorbent assay.

In assay [2] the target is T2, human MSLN-R3 protein (human, UniProt Q13421 487-598).
T2 construct: also called hMSLN-R3
The assay can be described thus: ELISA on coated antigen, antibody 10 nM.

For assay [3], the target named is T2, human MSLN-R3 protein. The assay can be described thus: ELISA on coated antigen, antibody 0.0001 nM.
Assay [4] has as its target T2, human MSLN-R3 protein. The experiment in a line: ELISA on coated antigen, antibody 0.01 nM.
Assay [5] concerns the target T1, human MSLN-hFc protein (Acro, Cat. No. …). The experiment in a line: ELISA on coated antigen, antibody 0.01 nM.
Assay [6] has the same target. The assay can be described thus: ELISA on coated antigen, antibody 100 nM.
In assay [7] the target is T2, human MSLN-R3 protein. The experiment in a line: ELISA on coated antigen, antibody 0.001 nM.
The target in assay [8] is T1, human MSLN-hFc protein (Acro, Cat. No. …). The assay can be described thus: ELISA on coated antigen, antibody 0.1 nM.
Assay [9] addresses T2, human MSLN-R3 protein. The assay can be described thus: ELISA on coated antigen, antibody 0.1 nM.
Assay [10] addresses T2, human MSLN-R3 protein. The experiment in a line: ELISA on coated antigen, antibody 1 nM.
The target of assay [11] is T2, human MSLN-R3 protein. The experiment in a line: ELISA on coated antigen, antibody 100 nM.
Assay [12] addresses T1, human MSLN-hFc protein (Acro, Cat. No. …). The assay can be described thus: ELISA on coated antigen, antibody 0.0001 nM.
For assay [13] the target is unchanged. The assay can be described thus: ELISA on coated antigen, antibody 1 nM.
Assay [14] has the same target. The experiment in a line: ELISA on coated antigen, antibody 10 nM.

The values below come from patent publication US20250250357A1 (NANJING ZAIMING PHARMACEUTICAL, published 2025).

T1 sequence (Q13421 other isoform, or with tags, fused parts or gaps limits assumed): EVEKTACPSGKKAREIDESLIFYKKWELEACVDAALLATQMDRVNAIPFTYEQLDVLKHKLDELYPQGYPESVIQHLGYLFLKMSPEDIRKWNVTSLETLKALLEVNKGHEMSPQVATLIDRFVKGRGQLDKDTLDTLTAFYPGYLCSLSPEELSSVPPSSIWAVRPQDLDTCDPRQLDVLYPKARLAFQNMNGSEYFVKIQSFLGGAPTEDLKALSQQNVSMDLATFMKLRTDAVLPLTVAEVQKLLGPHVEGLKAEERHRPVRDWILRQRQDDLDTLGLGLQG
T2 sequence (Q13421 495-606, form in doubt): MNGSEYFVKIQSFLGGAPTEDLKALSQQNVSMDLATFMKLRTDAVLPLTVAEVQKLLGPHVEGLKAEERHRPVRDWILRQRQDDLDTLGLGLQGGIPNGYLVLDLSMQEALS

B1: F7.44.20-H3 (scFv, not shown: small tags and cut ends)
scFv: EVQLVQSGAEVKKPGASVKVSCKASGYTFTDYNMDWVRQAPGQGLEWMGDINPSTGGTIYNQKFNGRVTMTEDKSTSTVYMELSSLRSEDTAVYYCARRRIGTGYFDVWGQGTTVTVSSGGGGSGGGGSGGGGSEIVLTQSPATLSLSPGERATLSCSASSSVISSYLSWYQQKPGQSPRLLIYRTSNLASGIPARFSGSGSGTDYTLTISSLEPEDFAVYYCHQWSSFPYTFGGGTKVEIK
notes: also called S009-F7.44.20 humanized antibody VH1 + VL3
As for B1, the OD450 in assay [1] was found to be 0.04 OD450; with human MSLN-R3 protein [2], 2.12 OD450; in the assay with human MSLN-R3 protein [3], 0.05 OD450; with human MSLN-R3 protein [4], 0.04 OD450; in assay [5], 0.06 OD450; in assay [6], 2.96 OD450. The OD450 in the assay with human MSLN-R3 protein [7] came to 0.04 OD450; in assay [8] it was 0.15 OD450; in the assay with human MSLN-R3 protein [9] it was 0.1 OD450; with human MSLN-R3 protein [10], 0.83 OD450; in the assay with human MSLN-R3 protein [11] it was 2.21 OD450; in assay [12], 0.04 OD450. The OD450 in assay [13] is 1.22 OD450; in [14], 2.74 OD450.

B2: F7.44.20-H8 (scFv, not shown: small tags and cut ends)
scFv: EVQLVQSGAEVKKPGASVKVSCKASGYTFTDYNMDWVRQAPGQGLEWMGDINPSTGGTIYNQKFQGRVTMTEDKSTSTVYMELSSLRSEDTAVYYCARRRIGTGYFDVWGQGTTVTVSSGGGGSGGGGSGGGGSEIVLTQSPATLSLSPGERATLSCSASSSVISSYLSWYQQKPGSSPRLLIYRTSNLASGIPARFSGSGSGTDYTLTISSLEPEDFAVYYCHQWSSFPYTFGGGTKVEIK
notes: also called S009-F7.44.20 humanized antibody VH1a + VL4
B2: the OD450 in assay [1] was determined as 0.04 OD450; in the assay with human MSLN-R3 protein [2], 2.07 OD450; with human MSLN-R3 protein [3] it was 0.05 OD450; with human MSLN-R3 protein [4] it was 0.04 OD450; in assay [5] it was 0.05 OD450; in [6], 3.09 OD450. Also, the OD450 with human MSLN-R3 protein [7] is 0.04 OD450; in assay [8], 0.15 OD450; with human MSLN-R3 protein [9], 0.09 OD450; with human MSLN-R3 protein [10], 0.76 OD450; with human MSLN-R3 protein [11], 2.15 OD450; in assay [12], 0.05 OD450. Besides, the results for the OD450 in assay [13] and in assay [14] were 1.13 OD450 and 2.55 OD450, respectively.

B3: F7.44.20-H12 (scFv, not shown: small tags and cut ends)
scFv: EVQLVQSGAEVKKPGASVKVSCKASGYTFTDYNMDWVRQAPGQGLEWMGDINPSTGGTIYNQKFNGRVTMTEDKSASTVYMELSSLRSEDTAVYYCARRRIGTGYFDVWGQGTTVTVSSGGGGSGGGGSGGGGSEIVLTQSPATLSLSPGERATLSCSASSSVISSYLSWYQQKPGSSPRLLIYRTSNLASGIPARFSGSGSGTDYTLTISSLEPEDFAVYYCHQWSSFPYTFGGGTKVEIK
notes: also called S009-F7.44.20 humanized antibody VH2 + VL4
With B3, the OD450 was 0.05 OD450 in [1]; 2.12 OD450 with human MSLN-R3 protein [2]; 0.05 OD450 with human MSLN-R3 protein [3]; 0.05 OD450 with human MSLN-R3 protein [4]; 0.06 OD450 in [5]; 3.17 OD450 in assay [6]. Also, the OD450 in the assay with human MSLN-R3 protein [7] was 0.05 OD450; in assay [8] it was 0.16 OD450; in the assay with human MSLN-R3 protein [9] it was 0.09 OD450; with human MSLN-R3 protein [10], 0.6 OD450; with human MSLN-R3 protein [11], 2.44 OD450; in assay [12] it was 0.05 OD450. The OD450 is 1.02 OD450 in assay [13] and 2.92 OD450 in assay [14].

B4: F7.44.20-H11 (scFv, not shown: small tags and cut ends)
scFv: EVQLVQSGAEVKKPGASVKVSCKASGYTFTDYNMDWVRQAPGQGLEWMGDINPSTGGTIYNQKFNGRVTMTEDKSASTVYMELSSLRSEDTAVYYCARRRIGTGYFDVWGQGTTVTVSSGGGGSGGGGSGGGGSEIVLTQSPATLSLSPGERATLSCSASSSVISSYLSWYQQKPGQSPRLLIYRTSNLASGIPARFSGSGSGTDYTLTISSLEPEDFAVYYCHQWSSFPYTFGGGTKVEIK
notes: also called S009-F7.44.20 humanized antibody VH2 + VL3
As to B4, the OD450 in assay [1] was 0.05 OD450; in the assay with human MSLN-R3 protein [2] it was 2.41 OD450; with human MSLN-R3 protein [3], 0.05 OD450; with human MSLN-R3 protein [4] it was 0.05 OD450; in [5] it was 0.06 OD450; in assay [6], 3.28 OD450. The OD450 with human MSLN-R3 protein [7] was 0.04 OD450; in assay [8], 0.27 OD450; in the assay with human MSLN-R3 protein [9], 0.16 OD450; with human MSLN-R3 protein [10], 1.1 OD450; in the assay with human MSLN-R3 protein [11] it was 2.43 OD450; in [12], 0.05 OD450. Moreover, the OD450 in [13] amounted to 1.69 OD450; in assay [14] it was 2.91 OD450.

B5: F7.44.20-H7 (scFv, not shown: small tags and cut ends)
scFv: EVQLVQSGAEVKKPGASVKVSCKASGYTFTDYNMDWVRQAPGQGLEWMGDINPSTGGTIYNQKFQGRVTMTEDKSTSTVYMELSSLRSEDTAVYYCARRRIGTGYFDVWGQGTTVTVSSGGGGSGGGGSGGGGSEIVLTQSPATLSLSPGERATLSCSASSSVISSYLSWYQQKPGQSPRLLIYRTSNLASGIPARFSGSGSGTDYTLTISSLEPEDFAVYYCHQWSSFPYTFGGGTKVEIK
notes: also called S009-F7.44.20 humanized antibody VH1a + VL3
On to B5, for which the OD450 in [1] stood at 0.04 OD450; with human MSLN-R3 protein [2], 2.23 OD450; with human MSLN-R3 protein [3], 0.05 OD450; with human MSLN-R3 protein [4], 0.05 OD450; in [5], 0.06 OD450; in assay [6], 3.05 OD450. The OD450 with human MSLN-R3 protein [7] stood at 0.04 OD450; in assay [8] it was 0.3 OD450; with human MSLN-R3 protein [9], 0.16 OD450; with human MSLN-R3 protein [10] it was 1.18 OD450; with human MSLN-R3 protein [11] it was 2.1 OD450; in assay [12], 0.04 OD450. Moreover, the OD450 in assay [13] came to 1.74 OD450; in [14] it was 2.99 OD450.

B6: F7.44.20-H4 (scFv, not shown: small tags and cut ends)
scFv: EVQLVQSGAEVKKPGASVKVSCKASGYTFTDYNMDWVRQAPGQGLEWMGDINPSTGGTIYNQKFNGRVTMTEDKSTSTVYMELSSLRSEDTAVYYCARRRIGTGYFDVWGQGTTVTVSSGGGGSGGGGSGGGGSEIVLTQSPATLSLSPGERATLSCSASSSVISSYLSWYQQKPGSSPRLLIYRTSNLASGIPARFSGSGSGTDYTLTISSLEPEDFAVYYCHQWSSFPYTFGGGTKVEIK
notes: also called S009-F7.44.20 humanized antibody VH1 + VL4
With B6, the OD450 in assay [1] came out at 0.04 OD450; with human MSLN-R3 protein [2], 2.11 OD450; in the assay with human MSLN-R3 protein [3], 0.05 OD450; in the assay with human MSLN-R3 protein [4], 0.04 OD450; in assay [5], 0.06 OD450; in assay [6], 3.2 OD450. Moreover, the OD450 with human MSLN-R3 protein [7] is 0.04 OD450; in [8], 0.19 OD450; in the assay with human MSLN-R3 protein [9] it was 0.1 OD450; with human MSLN-R3 protein [10], 0.74 OD450; with human MSLN-R3 protein [11], 2.32 OD450; in assay [12], 0.05 OD450. Also, the OD450 in assay [13] is 1.14 OD450; in assay [14] it was 2.99 OD450.

B7: F7.44.20-H15 (scFv, not shown: small tags and cut ends)
scFv: EVQLVQSGAEVKKPGASVKVSCKASGYTFTDYNMDWVRQAPGQGLEWMGDINPSTGGTIYNQKFSGRVTMTEDKSASTVYMELSSLRSEDTAVYYCARRRIGTGYFDVWGQGTTVTVSSGGGGSGGGGSGGGGSEIVLTQSPATLSLSPGERATLSCSASSSVISSYLSWYQQKPGQSPRLLIYRTSNLASGIPARFSGSGSGTDYTLTISSLEPEDFAVYYCHQWSSFPYTFGGGTKVEIK
notes: also called S009-F7.44.20 humanized antibody VH2a + VL3
Consider B7, for which the OD450 was determined as 0.05 OD450 in assay [1]; 1.85 OD450 in the assay with human MSLN-R3 protein [2]; 0.05 OD450 with human MSLN-R3 protein [3]; 0.04 OD450 with human MSLN-R3 protein [4]; 0.06 OD450 in assay [5]; 3.26 OD450 in assay [6]. In addition, the OD450 in the assay with human MSLN-R3 protein [7] stood at 0.04 OD450; in [8], 0.19 OD450; with human MSLN-R3 protein [9] it was 0.11 OD450; with human MSLN-R3 protein [10], 0.77 OD450; with human MSLN-R3 protein [11], 1.86 OD450; in assay [12] it was 0.05 OD450. Further, the OD450 amounted to 1.24 OD450 in assay [13] and 2.78 OD450 in [14].
